Test results from patent publication US6863888.

Key:
[1] = target: T1, GST-cJun(1-79), GST fused to c-Jun AA 1-79
T1 chain: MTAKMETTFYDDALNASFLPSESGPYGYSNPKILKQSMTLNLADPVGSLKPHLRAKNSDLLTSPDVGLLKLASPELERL

[2] = target: T2, GST-cJun(43-223), GST fused to c-Jun AA 43-223
T2 chain: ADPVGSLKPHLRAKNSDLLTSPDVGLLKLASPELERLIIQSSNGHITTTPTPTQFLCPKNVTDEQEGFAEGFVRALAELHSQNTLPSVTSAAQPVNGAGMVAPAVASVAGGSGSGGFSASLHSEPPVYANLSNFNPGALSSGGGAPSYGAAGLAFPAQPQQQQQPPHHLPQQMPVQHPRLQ

[3] = target: T3, GSTcJun(Ala63/73), GST fused to c-Jun AA 1-223 with Ser 63 and Ser 73 converted to alanines
T3 chain: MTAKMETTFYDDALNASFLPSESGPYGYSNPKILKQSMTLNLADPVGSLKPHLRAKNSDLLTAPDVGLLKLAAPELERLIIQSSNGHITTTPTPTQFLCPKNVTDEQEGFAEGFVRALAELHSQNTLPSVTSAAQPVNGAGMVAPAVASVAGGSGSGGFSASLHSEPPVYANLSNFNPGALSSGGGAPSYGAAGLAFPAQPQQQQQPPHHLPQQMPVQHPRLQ

[4] = target: GSTcJun(wt), glutathione-S-transferase fused to c-Jun AA 1-223 [GST: P08515]
[5] = target: GSTvJun, GST fused to the region of v-Jun equivalent to chicken c-Jun AA 1-144 [GST: P08515]
[6] = target: myelin basic protein (MBP)
[7] = target: GAL4-cJun(33-223) (yeast; human), P04386; test: cell-based or functional assay
[8] = target: GAL4-cJun(43-223) (yeast; human), P04386; test: cell-based or functional assay
[9] = target: GAL4-cJun(56-223) (yeast; human), P04386; test: cell-based or functional assay
[10] = target: T4, GSTcJun(33-223), GST fused to c-Jun AA 33-223
T4 chain: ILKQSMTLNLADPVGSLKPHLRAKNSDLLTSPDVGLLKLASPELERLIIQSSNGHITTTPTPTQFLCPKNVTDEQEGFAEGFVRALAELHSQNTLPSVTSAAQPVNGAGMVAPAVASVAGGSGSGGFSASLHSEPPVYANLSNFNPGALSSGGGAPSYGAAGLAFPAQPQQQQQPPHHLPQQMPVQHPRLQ

B1: epitope-tagged JNK1 (Flag epitope Asp-Tyr-Lys-Asp-Asp-Asp-Asp-Lys inserted between codons 1 and 2), expressed in COS cells (protein)
chain: MDYKDDDDKSRSKRDNNFYSVEIGDSTFTVLKRYQNLKPIGSGAQGIVCAAYDAILERNVAIKKLSRPFQNQTHAKRAYRELVLMKCVNHKNIIGLLNVFTPQKSLEEFQDVYIVMELMDANLCQVIQMELDHERMSYLLYQMLCGIKHLHSAGIIHRDLKPSNIVVKSDCTLKILDFGLARTAGTSFMMTPYVVTRYYRAPEVILGMGYKENVDLWSVGCIMGEMVCHKILFPGRDYIDQWNKVIEQLGTPCPEFMKKLQPTVRTYVENRPKYAGYSFEKLFPDVLFPADSEHNKLKASQARDLLSKMLVIDASKRISVDEALQHPYINVWYDPSEAEAPPPKIPDKQLDEREHTIEEWKELIYKEVMDLEERTKNGVIRGQPSPLAQVQQ
phosphorylation, immunecomplex kinase assay [1]: JNK1 efficiently phosphorylated GST-cJun fusion proteins containing residues 1-223 and 1-79 of c-Jun
phosphorylation, immunecomplex kinase assay [2]: a deletion of c-Jun NH2-terminal sequences including the d-domain (residues 1-42) caused a marked decrease in phosphorylation by JNK1
phosphorylation, immunecomplex kinase assay [3]: Replacement of Ser-63 and Ser-73 with Ala also decreased the observed phosphorylation
phosphorylation, immunecomplex kinase assay [4]: JNK1 efficiently phosphorylated GST-cJun fusion proteins containing residues 1-223 and 1-79 of c-Jun
phosphorylation, immunecomplex kinase assay [5]: both GST-vJun and myelin basic protein (MBP) are very poor substrates for JNK1
phosphorylation, immunecomplex kinase assay [6]: both GST-vJun and myelin basic protein (MBP) are very poor substrates for JNK1

B2: c-Jun N-terminal protein kinase (JNK), 46 kD form, endogenous kinase from cell extracts, P45983-2 1-384 (enzyme)
chain: MSRSKRDNNFYSVEIGDSTFTVLKRYQNLKPIGSGAQGIVCAAYDAILERNVAIKKLSRPFQNQTHAKRAYRELVLMKCVNHKNIIGLLNVFTPQKSLEEFQDVYIVMELMDANLCQVIQMELDHERMSYLLYQMLCGIKHLHSAGIIHRDLKPSNIVVKSDCTLKILDFGLARTAGTSFMMTPYVVTRYYRAPEVILGMGYKENVDLWSVGCIMGEMVCHKILFPGRDYIDQWNKVIEQLGTPCPEFMKKLQPTVRTYVENRPKYAGYSFEKLFPDVLFPADSEHNKLKASQARDLLSKMLVIDASKRISVDEALQHPYINVWYDPSEAEAPPPKIPDKQLDEREHTIEEWKELIYKEVMDLEERTKNGVIRGQPSPLAQVQQ
Ha-Ras responsiveness, CAT activity of 5xGAL4-Elb-CAT reporter in F9 cells (fold induction) [7]: 9.8
Ha-Ras responsiveness, CAT activity of 5xGAL4-Elb-CAT reporter in F9 cells (fold induction) [8]: 5.2
UV responsiveness, CAT activity of 5xGAL4-Elb-CAT reporter in F9 cells [8]: 1.5 fold
Ha-Ras responsiveness, CAT activity of 5xGAL4-Elb-CAT reporter in F9 cells (fold induction) [9]: 5.2
UV responsiveness, CAT activity of 5xGAL4-Elb-CAT reporter in F9 cells [9]: 1.5 fold

B3: c-Jun N-terminal protein kinase (JNK), 46 kD form, endogenous kinase from cell extracts (protein)
chain: MSRSKRDNNFYSVEIGDSTFTVLKRYQNLKPIGSGAQGIVCAAYDAILERNVAIKKLSRPFQNQTHAKRAYRELVLMKCVNHKNIIGLLNVFTPQKSLEEFQDVYIVMELMDANLCQVIQMELDHERMSYLLYQMLCGIKHLHSAGIIHRDLKPSNIVVKSDCTLKILDFGLARTAGTSFMMTPYVVTRYYRAPEVILGMGYKENVDLWSVGCIMGEMVCHKILFPGRDYIDQWNKVIEQLGTPCPEFMKKLQPTVRTYVENRPKYAGYSFEKLFPDVLFPADSEHNKLKASQARDLLSKMLVIDASKRISVDEALQHPYINVWYDPSEAEAPPPKIPDKQLDEREHTIEEWKELIYKEVMDLEERTKNGVIRGQPSPLAQVQQ
phosphorylation of the GSTcJun fusion protein by bound kinase [10]: Removal of AA 1-32 decreased phosphorylation of GSTcJun but had only a small effect on kinase binding
phosphorylation in solid-phase kinase assay [3]: Phosphorylation of this protein was considerably lower than that of GSTcJun(wt)
